Experimental data from article PMC12014896 (2025).
Positions count from the first letter of the chain named.

B1: COVIC-366 (antibody, V domains shown)
VH: EVQLVESGGGLVQPGRSLRLSCAASGFSLDDYGMHWVRQAPGKGLEWVSGISWNSGDRGYADSVKGRFTISRDNAKNSLYLQMNSLRAEDTALYYCAKGSGAHYDIMTGARLDYWGQGTLVTVSS
VL: DIQMTQSPSSLSASVGDRVTITCRASQSITNYLNWYQQKPGKVPKLLIYAASILQSGVPSRFSGSGSGTDFTLTISSLQPEDFATYYCQQSYSTPWTFGQGTKVEIKR
B2: COVIC-124 (antibody)
chain: QVQLQESGGGLVQAGGSLRLSCAASGRTFSEYAMGWFRQAPGKEREFVATISWSGGSTYYTDSVKGRFTISRDNAKNTVYLQMNSLKPDDTAVYYCAAAGLGTVVSEWDYDYDYWGQGTQVTVSSGGSGGSQVQLQESGGGLVQAGGSLRLSCAASGRTFSEYAMGWFRQAPGKEREFVATISWSGGSTYYTDSVKGRFTISRDNAKNTVYLQMNSLKPDDTAVYYCAAAGLGTVVSEWDYDYDYWGQGTQVTVSSGGGGSGGGGSEPKSCDKTHTCPPCPAPELLGGKKKPLDGEYFTLQIRGRERFEMFRELNEALELKDAQAGKEPGGGGGSGGGGSQVQLQESGGGLVQAGGSLRLSCAASGRTFSEYAMGWFRQAPGKEREFVATISWSGGSTYYTDSVKGRFTISRDNAKNTVYLQMNSLKPDDTAVYYCAAAGLGTVVSEWDYDYDYWGQGTQVTVSSGGSGGSQVQLQESGGGLVQAGGSLRLSCAASGRTFSEYAMGWFRQAPGKEREFVATISWSGGSTYYTDSVKGRFTISRDNAKNTVYLQMNSLKPDDTAVYYCAAAGLGTVVSEWDYDYDYWGQGTQVTVSS
B3: COVIC-59 (antibody, V domains shown)
VH: QVQLQESGGGLVQAGGSLRLSCAASGRTFSEYAMGWFRQAPGKEREFVATISWSGGSTYYTDSVKGRFTISRDNAKNTVYLQMNSLKPDDTAVYYCAAAGLGTVVSEWDYDYDYWGQGTQVTVSS
B4: COVIC-55 (antibody, V domains shown)
VH: B3 VH
B5: COVIC-79 (antibody, V domains shown)
VH: EVQLVESGGGLIQPGGSLRLSCAASGFIVSRNYMIWVRQAPGKGLEWVSVIYSGGSTFYADSVKGRFTISRDNSKNTLYLQMNSLRAEDTAVYYCARDLEVAGAIDYWGQGTLVTVSS
VL: EIVLTQSPGTLSLSPGERATLSCRASQSISSSYLAWYQQKPGQAPRLLIYGATSRATGTPDRFSGSGSGTDFTLTINRLEPEDFAVYYCQQYGSSPGYTFGQGTKLEIK
B6: COVIC-168 (antibody, V domains shown)
VH: EVQLVESGGGLIQPGGSLRLSCAASGVTVSSNYMNWVRQAPGKGLEGVSVIYSGGTTYYADSVKGRFTISRDNSKNTLYLQMNSLRAEDTAVYYCARDTVVYGMDVWGQGTTVTVSS
VL: DIQLTQSPSFLSASVGDRVTITCWASQGISSYLAWYQQKPGKAPKLLIYTASTLQSGVPSRFSGSGSGTEFTLTISSLQPEDFATYYCQQLNSYPLTFGGGTKVEIKR
B7: COVIC-151 (antibody, V domains shown)
VH: QVQLQESGPGLVKPSQTLSLTCTVSGGSISSYGYYWNWIRQHPGKGLEWIGYIYYSGSTYYNPSLKSRVTISVDTSKNQLSLRLNSVSAADTAVYYCARDFGGNSNYFDYWGQGTLVTVSS
VL: B6 VL with D1A, F10S, W24R, A25T, Y32A, T50D, T53S, Q55E, E70D, L91F
B8: COVIC-170 (antibody, V domains shown)
VH: EVQLVQSGAEVKKPGESLKISCKGSGYSFTSYWIGWVRQMPGKGLEWMGIIYPGDSDTRYSPSFQGQVTISADKSISTAYLQWSSLKASDTAMYYCVRSYNWNYFDYWGQGTLVTVSS
VL: AIQLTQSPSSLSASVGDRVTITCRASQGISSGLAWYQQKAGKAPKLLIYDVSSLESGVPSRFSGSGSGTDFTLTISSLQPEDFATYYCQQFLSYPWTFGQGTKVEIKR
B9: COVIC-97 (antibody, V domains shown)
VH: EVQLVESGPEVKKPGTSVKVPCKASGFTFTSSAVQWVRQARGQRLEWIGWIVVGSGNTNYAQKFQERVTITRDMSTSTAYMELSSLRSEDTAVYYCAAPSCSGGRCYDGFDIWGQGTMVTVSS
VL: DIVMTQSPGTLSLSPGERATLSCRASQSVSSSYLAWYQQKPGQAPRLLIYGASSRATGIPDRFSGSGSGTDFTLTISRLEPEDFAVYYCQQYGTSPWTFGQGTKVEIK
B10: COVIC-136 (antibody, V domains shown)
VH: EVQLLESGGGLIQPGGSLRLSCAASGFTVSSNYMSWVRQAPGKGLEWVSVIYSGGSTYYADSVKGRFTISRDNSKNTLYLQMNSLRAEDTAVYYCARDHVRPGMNIWGQGTMVTVSS
VL: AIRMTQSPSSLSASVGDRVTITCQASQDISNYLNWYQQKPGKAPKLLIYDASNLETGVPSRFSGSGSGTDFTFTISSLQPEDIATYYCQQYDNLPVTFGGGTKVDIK
B11: COVIC-304 (antibody, V domains shown)
VH: QVQLQQWGAGLLKPSETLSLKCAVYGGSFSGYYWGWIRQSTGKGLEWIGEINRSGSTNYNPSLKSRVTISVDTSKNQFSLKLSSVTAADTAVYYCARGGARYYYGSGSYRSTPRPYYFDYWGQGTLVTVSS
VL: SYELTQPPSVSVAPGETARITCGGDNIGRRHVHWYQQKPGQAPVLVIYDDSDRPSGIPDRFSGSNSGNTATLTIGRVEAGDEADYYCQVWGSSNDPHVFGTGTKLTVLG
B12: COVIC-183 (antibody, V domains shown)
VH: EVHLVESGGGLVQPGGSLRLSCAASGFTFSDHYMDWVRQAPGKGLEWVGRTRNKANSYTTEYAASVKGRFTISRDDAKNSLYLQMNSLKTEDTAVYYCARVHRWAYCINGVCFGAYSDYWGQGTLVTVSS
VL: not shown
B13: COVIC-293 (antibody, V domains shown)
VH: QVTLRESGPALVKPTQTLTLTCTFSGFSLSTSGMCVSWIRQPPGKALQWLARIDWDDDKYYSTSLKTRLTISKDTSKNQVVLTVTNVDPVDTGTYYCARVQVAAAGSPYDYWGQGTLVTVSS
VL: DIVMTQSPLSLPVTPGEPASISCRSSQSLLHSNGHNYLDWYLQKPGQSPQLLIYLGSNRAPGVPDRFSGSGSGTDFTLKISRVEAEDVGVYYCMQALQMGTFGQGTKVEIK
B14: COVIC-252 (antibody, V domains shown)
VH: EVQLLESGGGLIQPGGSLRLSCAASGFIVSSNYMSWVRQAPGKGLEWVSVIYSGGSTFYADSVKGRFTISRDNSNNTLYLQMNSLRAEDTAVYYCARDYGDFYFDYWGQGTLVTVSS
VL: DIQMTQSPSTLSVSPGERATLSCRASQSVSSNLAWYQQKPGQAPRLLIYGASTRATGIPVRFSGSGSGTESTLTISSLQSEDFAVYYCQQYNKWPRTFGQGTKVEIK
B15: COVIC-393 (antibody, V domains shown)
VH: EVQLVQSGGGLVQPGGSLKLSCAASGFTFSGSAMHWVRQASGKGLEWVGHIRSKANSYATAYAASVKGRFTISRDDSKNTAYLQMNSLNTEDTAVYYCTREDIVGVPVAKDWFDPWGQGTLVTVSS
VL: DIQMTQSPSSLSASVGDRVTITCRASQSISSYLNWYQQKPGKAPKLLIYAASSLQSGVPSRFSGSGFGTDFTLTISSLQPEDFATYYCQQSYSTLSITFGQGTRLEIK
B16: COVIC-139 (antibody, V domains shown)
VH: EVQLVESGGGVVQPGRSLRLSCAASGFTFSSYGMHWVRQAPGKGLEWVAVISYDGSNKYYADSVKGRFTISRDNSKNTLYLQMNSLRAEDTAVYYCANGFGEYYYYAMDVWGQGTTVTVSS
VL: NFMLTQPHSVSESPGKTVTISCTGSSGSIASNYVQWYQRRPGSAPTTVIYEDNQRPSGVPDRFSASIDSSSNSASLTISGLKTEDEADYYCQSYDSSNWVFGGGTKLTVL
B17: COVIC-313 (antibody)
chain 1: QVQLVQSGAEVKKPGSSVKVSCKASGGTFGISWVRQAPGQGLEWMGRIIPILGTANHAQKFQGRVTITADKSTGTVYMELSSLRSEDTAVYYCARDGDSGSYYETLGFDYWGQGTLVTVSSASTKGPSVFPLAPEVQLVESGGGLVKPGGSLRLSCAASGFTFSPYSMNWVRQAPGKGLEWVSSISVSNIYTYYADSVKGRFTISRDNAKNSLYLQMNSLRAEDTAIYYCARDLKKGGIQYDAFDIWGQGTVVTVSS
chain 2: QSALTQPPSASGSPGQSVTISCTGTSSDVGGYNYVSWYQQHPGKAPKLMIYEVNKRPSGVPDRFSGSKSGNTASLTVSGLQAEDEADYYCSSYAGSNNLVFGGGTKLTVLQPKAAPSVTLFPPEIVLTQSPATLSLSPGERATLSCRASQSVNDYLAWYQQKPGQAPRLLIYDASNRATGFPARFSGSGSGTDFTLTISSLEPEDFAVYYCQQRSNWPPTFGQGTRLEIK
B18: COVIC-262 (antibody, V domains shown)
VH: QVQLVQSGAEVKKPGSSVKVSCKASGGTSSSYAISWVRQAPGQGLEWIGGIIPIFDTTKYAQKFQGRVTITADESTNTAYMEVSSLRSEDTAVYYCAKVADRVGASTGELDYWGQGTLVTVSS
VL: EVVLTQSPATLSLSPGERGTLSCRASQSISNYLAWYQQKPGQAPRLLIYNASNRATGVPARFSGSGSGTDFTLTISSLEPEDFAVYYCQQRSNWPPWTFGQGTKVEIKR
B19: COVIC-141 (antibody, V domains shown)
VH: QVQLQESGPGLVKPSQTLSLTCTVSGGSISSGGYYWSWIRQHPGKGLEWIGYIYYSGNTYYNPSLKSRVTMSVDTSKNQFSLKLTSVTAADTAVYYCASTARPLTNAEYFQHWGQGTLVTVSS
VL: DIQLTQSPGTLSLSPGERATLSCRASQSVSSSYLAWYQQKPGQAPRLLIYGTSSRATGIPDRFSGSGSGTDFTLTISRLEPEDFAVYYCQQYRTFGQGTKVEIK
B20: COVIC-369 (antibody, V domains shown)
VH: EVRLVESGGGLIQPGGSLTLSCAASGVIVSRNYMNWVRQAPGKGLEWVSVIYSGGSTFYADSVKGRFTISRDNSKNTLYLQMNSLRAEDTAVYYCARWGPNYYGSGSDHYNSYGMDVWGQGTTVTVSS
VL: EIVLTQSPGTLSLSPGESATLSCRASQGVSSSSLAWYQQRPGQAPRLLMYGASSRATGIPDRFSGSGSGTDFTLTISRLEPEDFAVYYCQQSGSSPQYTFGQGTKLEIKR
B21: COVIC-294 (antibody, V domains shown)
VH: EVQLVESGGGLVQPGGSLRLSCAASGITVSSNYMNWVRQAPGKGLEWVSVIYSGGSTFYADSVKGRFTIARDNSKNTLYLQMNSLRAEDTAVYYCAREGLLVGPTGRGLGMDVWGQGTTVTVSS
VL: DIQMTQSPSSLSASVGDRVTITCQASQDINNYLNWYQQKPGKAPKLLIYDASNLQTGVPSRFSGSGSGTDFTFTISSLQPEDIATYYCQQYADLPYTFGQGTKLQIK
B22: COVIC-134 (antibody, V domains shown)
VH: EVQLVESGGGVVQPGRSLRLSCAASGFTFSSYGMHWVRQAPGKGLEWVAVIWYDGSNKYYADSVKGRFTISRDNSKNTLYLQMNSLRAEDTAVYYCAKGPDILTGYYNYYYYGMDVWGQGTMVTVSS
VL: QSVLTQPPSVSGAPGQRVTISCTGSSSNIGAGYDVHWYQQLPGTAPKLLIYGNSNRPSGVPDRFSGSKSGTSASLAITGLQAEDEADYYCQSYDSSLSGFYVVFGGGTKLTVL

Biological target: SARS-CoV-2 spike RBD (Wuhan-Hu-1) (Severe acute respiratory syndrome …, UniProt P0DTC2)
Test: SPR

Binder	Kd [nM]
B1	0.0703
B2	167
B3	201
B4	115
B5	0.745
B6	24.1
B7	6.31
B8	1.16
B9	4.96
B10	9.86
B11	197
B12	6.97
B13	0.429
B14	15.1
B15	0.233
B16	44.6
B17	0.155
B18	4.67
B19	107
B20	0.209
B21	0.0593
B22	90
